The DeepSol protein solubility set

Assay: soluble on expression in E. coli; label from the status in PepcDB or PDB records

| Sequence | soluble on expression in E. coli |
| --- | --- |
| GMNNIIVGMGEALWDVLPEGKKIGGAPANFAYHVSQFGFDSRVVSAVGNDELGDEIMEVFKEKQLKNQIERVDYPTGTVQVTLDDEGVPCYEIKEGVAWDNIPFTDELKRLALNTRAVCFGSLAQRNEVSRATINRFLDTMPDIDGQLKIFDINLRQDFYTKEVLRESFKRCNILKINDEELVTISRMFGYPGIDLQDKCWILLAKYNLKMLILTCGINGSYVFTPGVVSFQETPKVPVADTVGAGDSFTAAFCASILNGKSVPEAHKLAVEVSAYVCTQSGAMPELPVILKDRLL | soluble |
| SEAAETEAEAAALEVLAEVAGILEPVGLQEEAELPAKILVEFVVDSQKKDKLLCSQLQVADFLQNILAQEDTAKGLDPLASEDTSRQKAIAAKEQWKELKATYREHVEAIKIGLTKALTQMEEAQRKRTQLREAFEQLQAKKQMAMEKRRAVQNQWQLQQEKHLQHLAEVSAEVRERKTGTQQELDGVFQKLGNLKQQAEQERDKLQRYQTFLQLLYTLQGKLLFPEAEAEAENLPDDKPQQPTRPQEQSTGDTMGRDPGVSFKAVGLQPAGDVNLP | soluble |
| MTDERYGYIHASMLPTQCLCTKLRRAARSVSRFYDEALADTGLKVAQFSLLRHLRRLDRPSISELAEAMGLDRSTLGRNLRVLEGDGLLRLTGGEDQRNRLVELTPAGLDALERGTPAWEDAQRRLAGRLGEERSGALAALLAELERLD | not soluble |
| MAHHHHHHMSTAKSFPMAQLSTRAQYSRMQREFVQLQRQENPRNINFTTSLKNRHKNRYLDILANEETIYPPVLKAVGAQPGRYPYINGNLIDLDLPHTFVACQAPVPQGVPDFLETLSEKKVDLVVMLTKLREGGVLKAERYWPEEEEDSLSFPESGHDAIKVTRDAEASYEVDAELDIVRRPLVIHVPGKPMHRVLQVQYVGWPDHGVPESAASFDELLSVIKNCVTTSPILVHCSAGIGRTGTLIGAYAALLHIERGILTDSTVYSIVAAMKQKRFGMVQRLEQYAVIYMTVLGRLGVDISGLVSTLNLKA | soluble |
| MAHHHHHHMLSQNVAKTTVPSYYMIRTNLPQRKPQNQWEGVYYFGGITKRQRHLILLQRKREREARMRAFSASCSNLLRLLEGDTQEQQQAKTQTIQLSSPHGPFDLAIRLAQHGLYQQASRIVDELHQQRALRMSHYGLLIDALSAPCLGQRILYGSAQCDPALTYKLLGDENGEERAQEAHRWFDMAFALLTTECRMSGSEHRLPQATAAATHLVNALMRALLTCGYTHVSAVPDAVYDRMGLMGISPTISTYELVMLALSLQGNMKEAESVFSFLRRHHNEHVTIGSFNALLLGHRECRQFDRCDAIWQELVDRRWPRASTLTAELYLRSIVDHSYTPTSGPLQRFGNINVVEKKKIPLVLAQMDDLGIPRAHLSRPLMDEVEDALRKFHIYKSRYYEWGRAVKQFNFIEFRRRNGWMYDLHLMKNTTKQVGPLRDFNQPDATQAPVATVEIPAFFNERPAWEQPPLEETLYVTESRERYDDVRSGDIYEDRTRSLHDRSPTWMNEVPETRYDHLYGVNHPDIAKIGIRRHLNAEYVNRKEVVERDAALMKKNLSTGRRLRRKVESSRTHRNAGSMSGAAPASASR | not soluble |
| MSLDYHKQFIGELSQVSYHIIGYGSYYEEALIKYLGESIERYATVIAGDLLSDRIVYASYNELKLLHKVMPLEYLQVFTQEQIALSCDLQMMMCDKMVTENDVLGWVKCPMFFEDAEMYVPAQMLCVGYKTNETVGERRIIPGFSTGTASHKTLEAAMCNSLIEYIQIDSMMLSWYTKKPCPKIIVDDPDIEVILEEARLGKDSLYDIIPIDMTVGEDNPLYTFGIILKNKYDEGPYLLFGVQAGLDPKHALLRGIMEASAISYSYYYNLLYQKASLANIECEEPLFLDLDSNVFYYAHPKDQDHKWKAFEPLISGEVLLSDLEDHSGKDKKEDLKTLLAYAKKVSPNAVFLDITPPEALEKGWYVTRVLMPELLEMCIPAFPFANHPRMRQFGGVTNAFVHPMPEGHHHHHH | soluble |
| MTPGGQAQIGNVDLVKQLNSAAVYRLIDQYGPISRIQIAEQSQLAPASVTKITRQLIERGLIKEVDQQASTGGRRAISIVTETRNFHAIGVRLGRHDATITLFDLSSKVLAEEHYPLPERTQQTLEHALLNAIAQFIDSYQRKLRELIAISVILPGLVDPDSGKIHYMPHIQVENWGLVEALEERFKVTCFVGHDIRSLALAEHYFGASQDCEDSILVRVHRGTGAGIISNGRIFIGRNGNVGEIGHIQVEPLGERCHCGNFGCLETIAANAAIEQRVLNLLKQGYQSRVPLDDCTIKTICKAANKGDSLASEVIEYVGRHLGKTIAIAINLFNPQKIVIAGEITEADKVLLPAIESCINTQALKAFRTNLPVVRSELDHRSAIGAFALVKRAMLNGILLQHLLEN | soluble |
| MANTGCLSPGAFLSKVPEFFQTANEKHITVRLTAKRLIEHDPVEGNLEFDSTNHPDYDVSKKASEISVSSRSDREYPLLIRMSYGSHDKKTKCSTVVKASELDQFWQEYSSVFKGGMQNLIKKKKKKSKNGTISKTGKKNKVAKKN | not soluble |
| MCSSDSLQLHNVFVYGSFQDPDVINVMLDRTPEIVSATLPGFQRFRLKGRLYPCIVPSEKGEVHGKVLMGVTSDELENLDAVEGNEYERVTVGIVREDNSEKMAVKTYMWINKADPDMFGEWNFEEWKRLHKKKFIETFKKIMECKKKPQGQGNDDISHVLREDQ | soluble |
| MGSDKIHHHHHHMGLNAYIQGFNSLESIDRAPGYFKYHHHSVADHCFRTAELAQMMGDIEEVHGNKKINWKALYEKSLNHDYTERFIGDIKTPVKYATPQLRKMIGDVEETMTTKFIKEEIPKEFQEIYTRRLSEGKDDTLEGKILSVCDKLDLLYEAYGEIELGNPNPVYMQMFKESLETIKKFDDLVCVQYFIKKILPDLFKGDFAGKDKMQRIAFSILLLGDDE | not soluble |
| MKFGKTIAVVLASSVLLAGCTTDKKEIKAYLKQVDKIKDDEEPIKTVGKKIAELDEKKKKLTEDVNSKDTAVRGKAVKDLIKNADDRLKEFEKEEDAIKKSEQDFKKAKSHVDNIDNDVKRKEVKQLDDVLKEKYKLHSDYAKAYKKAVNSEKTLFKYLNQNDATQQGVNEKSKAIEQNYKKLKEVSDKYTKVLNKVGKEKQDVDQFK | soluble |
| MGSDKIHHHHHHMNYRDELILQWVNQQGKASVIELAQHCDISVETIRRDLNKLANKGLLHRTHGGAVSNKTKDLGSFFQTRKHINATAKRHIAQKALDLLYENAVIGLDASSTSWYFAYLMPDIPCTVVTNSMFNINALVNKSNVKTIVTGGVYSAKYEAFYGPLSEYLLQRLHINFSVFSCSGIDKNGNIWESNELNASLKRKMMEASERAYLLIDSSKFEKTSLIQLADLSKINTIFSDRSLPDNLQKYCEQHDIMTVL | not soluble |
| MGSDKIHHHHHHMASYHLNAKMAQDIVSRTMQIIDSNINVMDARGKIIGSGDQERLGELHEGALLALSQGRVVDIDDAVARHLHGVRPGINLPLRIDGEIVGVIGLTGNPSQLRQYGELVCMTAEMMLEQARLLHMLAQDSRLREELVLNLVRTDDLSPALMEWAQRLGIDMNKPRVAAVIEVDSGQLGVDSAMAELQQLQTLLTTPERDNLIAIVSLTEMVVLKPALNSHGRWDAEEHRRRVDTLMSRMAESSRLRVRLALGNYFAGPGSIARSYRTARTTMSVGKQRMPAQRCYYYQDLMLPVLLDSLRGGWQANELVRPLSKLKAMDGNGLLRRTLGAWFRNNVQPGATAKALFIHRNTLEYRLNRISELTGLDLGNFDDRLLLYVALQLDEEE | not soluble |
| MGSDKIHHHHHHMHILFLTHYFPPEVNAPASRTYENARRWVRDGHHVTVITCAPNHPKGVIYPGYRNRWCQQEDLDGIRVLRVKTYLSANKGFAKRIANYLSYMLSSTVFSCLVRDIDVVVSTSPQFFCGLAGYFVSRARSAPWVVEIRDLWPESIIAVGAIRNRTVIDLLEGLETFMYRRADHVVAVTDAFKRHIAGRGVGRDRISVIKNGADLERFTSGPRENSFRREHGLEGKFVVSYVGTHGMAHGLNTIFETAEAMRSCEDIVFLLVGDGAEREPLLARKAELGLTNVLMLPQQPKERMPEIINASDACMVLLKKTDLFKTVIPSKIFEAMAMERPIILGVEGESREIVEEGCCGLCIEPENAAELADAIRRLRDDGKLADELGQNGRRFVSAVFNREVLARRYLETLSSMVPLPASTIGVIGKELP | not soluble |
| SAEGDYYTLGNRQRIPRDPFREQSLASRFMDDDFGLPPFPNELSMDWPGWARPRLSHRLDAPWTGSLRSGFPRASMSSPQGFSSVYTESPRRASAPPTDSDEPWKVCVNVHSFKPEELNVKTKDGFVEVSGKHEEKQDEGGIVTKNFTKKIQIPLDVDPVTVFASLSPEGVLIIEARQTPPYYLYSNEMPAESMEEPEARPQEPSMTSTTTFEARE | soluble |
| RSLIAGYDPLILDVSHGFNISEFARIANTLDDTTYTSLTPMQLLKAMDTLEGIESLRRFAAILVGGAPLRADDLRAAKELGINVVTTYGSSETSGGCVYNGRPIPGAKVRVV | not soluble |
| MSKKPVALIILDGFALRDETYGNAVAQANKPNFDRYWNEYPHTTLKACGEAVGLPEGQMGNAEVGHLNIGAGRIVYQSLTRINIAIREGEFDRNETFLAAMNHVKQHGTSLHLFGLLSDGGVHSHIHHLYALLRLAAKEGVKRVYIHGFLDGRDVGPQTAPQYIKELQEKIKEYGVGEIATLSGRYYSMDRDKRWDRVEKAYRAMVYGEGPTYRDPLECIEDSYKHGIYDEFVLPSVIVREDGRPVATIQDNDAIIFYNFRPDRAIQISNTFTNEDFREFDRGPKHPKHLFFVCLTHFSETVAGYVAFKPTNLDNTIGEVLSQHGLRQLRIAETEKYPHVTFFMSGGREEEFPGEDRILINSPKVPTYDLKPEMSAYEVTDALLKEIEADKYDAIILNYANPDMVGHSGKLEPTIKAVEAVDECLGKVVDAILAKGGIAIITADHGNADEVLTPDGKPQTAHTTNPVPVIVTKKGIKLRDGGILGDLAPTMLDLLGLPQPKEMTGKSLIVK | soluble |
| MIRVCNQIGIPYYAVNFEKQYYEKVFQYFLDEYKAGRTPNPDVLCNKEIKFKAFLEHALSLGADYLATGHYARVDRSGGKVRMLRGIDENKDQTYFLNQLTEDTLSKVMFPIGELQKSRVREIAKEAELATATKKDSTGICFIGERNFKTFLSQYLPAQPGDMMTMDGEVKGRHDGLMYYTIGQRHGLGIGGSGEPWFAVGKDLEKNILYVDQGFHNPLLYSDKITATNISWVRSDIMKGEEISCTAKFRYRQEDHKVTVRMTGEGEAEVIFDEQVRAVTPGQAVVFYDGEECLGGGTIDDVYKDGTKLWYV | not soluble |
| MQLGDKQLVVQLACANQQRHNTNLPNSASAIAGIDLSQGAGRATEILCLMNMVTEDELKADDEYEEILEDVRDECSKYGIVRSLEIPRPYEDHPVPGVGKVFVEFASTSDCQRAQAALTGRKFANRTVVTSYYDVDKYHNRQF | not soluble |
| MIRVIFLDLDKTLLPEYDPEPAIPIVEELKKKGFEIVFNSSKTRAEQEYYREKLNVKGPFIVENGSAIYIPSNYFPFEVPGVKRGEYMVLELGVKVEEIRKALKELEAEYGLKYYGNSTDEEIEKFTKLPKHLIPLAKDREYSETIFLWKREGWEKDLIRKGFKVTMGSRFYAVHGNSDKGKAAKLLLDLYKRVDEVESYAVGDGENDFPMFDVVDFAFLIGDLRHENAENVTSIKDVLKKIAAALEHHHHHH | soluble |
| MAHHHHHHMKLFCVGHRKVPIRVSPFDHPICVGCSSTLSFSSVLRKREYWNDMSTTNPLDVVLNMRLAVKELTNSAAASDKASEREKIKAKKALNKDNIEAARVYAENAIRKKDEGTSYLRLASRVDAAAERIQSAMQMHAMTRSLEKAICGISKVLHSLDPVQITTAMDAFERHVDTVAVNANAMDGTFERSRASAVPAAEVESFLEQITPDNEIDISEQIAVATNYLKKRPAATEVGDDVGITERMQRISIGAR | not soluble |
